Experimental data: US20190315864A1

B1: CTLA4 heavy chain single domain antibody No. 188 (VHH)
VHH: QVQLQESGGGSVQAGGSLRLSCAASGYTYSSVCMGWFRQALGKEREAVVGIDGDGITMYANSVKGRFTISKDNAKNTLYLQMNSLKPEDTAMYYCASGGGQGDGSCALTYWGQGTQVTVSS
B2: CTLA4 heavy chain single domain antibody No. J38 (VHH)
VHH: QVQLQESGGGSVQAGGSLRLSCAPSRYSGALMGWFRQAPGKEREGVAVISRSGLTTYYADSVKGRFTISQDTAKNTIYLQMNSMKPEDTAMYYCVAGWHVGGTWSETSSYDYWGQGTQVTVSS

Molecular target: Fc protein
Test: ELISA, Fc protein coated, 10 ng VHH/well

| Binder | OD (against Fc) [OD405] |
| --- | --- |
| B1 | 1.02 |
| B2 | 0.752 |
